Laboratory results published in patent US20240043859A1, “HERBICIDE-RESISTANT PROTEIN, AND GENE AND USE THEREOF” (QINGDAO KINGAGROOT CHEMICAL COMPOUND CO., LTD., priority 2020, published 2024).
“Also recorded” adds a separate entry of the source.

Assays:
[1] = Chromogenic reaction of degrading herbicides in bacteria: triclopyr; type: cell-based, Escherichia coli; details: recombinant E. coli expressing the gene
Arabidopsis thaliana [2] = test: Herbicide resistance of transgenic Arabidopsis thaliana seedlings on plate medium (root growth); type: in vivo; details: plate medium with 2,4-D (0.3 μmol)
[3] = type: cell-based, Escherichia coli
[4] = Chromogenic reaction of degrading herbicides in bacteria: 2,4-D; type: cell-based, Escherichia coli; details: recombinant E. coli expressing the gene, 2,4-D added to the medium, red = phenols
Summary of the method: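 Colour from 2,4-D degradation was detected at A510 after 5 min at room temperature, with 4-aminoantipyrine and ferricyanide added to culture supernatant in pH 10 borate. Cultures were AAD12-expressing or empty-vector (pET15b) BL21(DE3), grown overnight at 28 °C with 0.5 mM 2,4-D, 0.1 mM IPTG and 2 mM α-ketoglutarate.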

Arabidopsis thaliana [5] = test: Herbicide resistance of transgenic Arabidopsis thaliana seedlings on plate medium (root growth); type: in vivo; details: Arabidopsis overexpressing the gene
Summary of the method: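 After 3 days of cold treatment at 4 °C, seeds were cultured at 22 °C under a 16 h/8 h light cycle on MS herbicide medium (0.3 μM 2,4-D in the screen). Root growth was scored against wild-type seedlings at one week. The material was T2 AAD-overexpressing lines (AtUbi10 promoter, MAS terminator, hygromycin marker), two events each, tested with 2,4-D, 2,4-DB sodium and MCPA.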

B1: QYD47: AAD-like enzyme, SEQ ID NO. 93 (protein)
chain: MATRLEIKPLDATFGAVVTGIKLAEIDEATWRELHATWLKYALLVFPGQFLKRDQQIAFAKHFGPLEFEMAAISNVKSDGTLRIEKDNDDVMKILKGNMGWHADSTYMPVQAKGAVFSAEEVPTVGGQTGWADMRAAYDALDDARRARVETLQAYHSLHYSQSKLGHETRKSDGEYSGYGLHNGPIPLRPLVKTHPETGRKSLLIGRHAHDIPGMDREESQSFLEELVDFACRPPRIYHHDWAAGDAVVWDNRCLLHQATPWDMTQRRIMWHSRIAGDPASESALAA
modifications: Synthetic polypeptide, QYD47, D47
- Chromogenic reaction of degrading herbicides in bacteria: Triclopyr [1]: Yes
- Chromogenic reaction of degrading herbicides in bacteria: Triclopyr ([1]; listed as D47): slight degradation
- 2,4-D resistance of T1 generation transgenic seedlings (seminal root growth) (Arabidopsis thaliana [2]): showing tolerance to 2,4-D
- Chromogenic reaction of degrading herbicides in bacteria: MCPA [3]: Yes
- Chromogenic reaction of degrading herbicides in bacteria: 2,4-D [4]: Yes
- Chromogenic reaction of degrading herbicides in bacteria: 2,4-D ([4]; listed as D47): could degrade 2,4-D; also recorded: capable of degrading 2,4-D
- Resistance of transgenic Arabidopsis thaliana: 2,4-D (Arabidopsis thaliana [5]): Yes
- Resistance of transgenic Arabidopsis thaliana: MCPA (Arabidopsis thaliana [5]): Yes

B2: QYD48: AAD-like enzyme, SEQ ID NO. 95 (protein)
chain: MTDRLEIKPLDATFGAVVTGIRLAEIDEPTWRELHATWLKYALLVFPGQHLQRDQQIAFAKRFGPLEFEMAAISNVKSDGTLRIEEDNDDMMKILKGNMGWHADSTYMPVQAKGAVFSAEEVPTIGGQTGWADMRAAYDALDEARKAQIESLQAYHSLHYSQSQLGHQTGKSDGEYSGYGLHDGPVPLRPLVKTHPETGRKSLLIGRHAHNIPGMDRDEARRLLEGLIDFACQPPRIYHHDWAAGDAVVWDNRCLLHQATPWDMTQRRIMWHSRIAGDPASESALAA
modifications: Synthetic polypeptide, QYD48, D48
- Chromogenic reaction of degrading herbicides in bacteria: Triclopyr [1]: Yes
- Chromogenic reaction of degrading herbicides in bacteria: Triclopyr ([1]; listed as D48): slight degradation
- 2,4-D resistance of T1 generation transgenic seedlings (seminal root growth) (Arabidopsis thaliana [2]): showing tolerance to 2,4-D
- Chromogenic reaction of degrading herbicides in bacteria: MCPA [3]: Yes
- Chromogenic reaction of degrading herbicides in bacteria: 2,4-D [4]: Yes
- Chromogenic reaction of degrading herbicides in bacteria: 2,4-D ([4]; listed as D48): could degrade 2,4-D; also recorded: capable of degrading 2,4-D
- Resistance of transgenic Arabidopsis thaliana: 2,4-D (Arabidopsis thaliana [5]): Yes
- Resistance of transgenic Arabidopsis thaliana: MCPA (Arabidopsis thaliana [5]): Yes

B3: QYD46: AAD-like enzyme, SEQ ID NO. 91 (protein)
chain: MARAFYITPLDATFGAVVTGVKLVDLDDAGWRELHAAWLQYALLVFPGQYLKRDQQIAFARRFGPLEFEMVAISNVRSDGTLRVEKDNDDVMKILKGNMGWHADSTYMPVQAKGAVFSAEVVPTIGGHTGFADMRAAYDALDDVRKARVENLQARHSLHYSQSKLGHETKKSDGEYHGYGLHDGPVPLRPLVKTHPETGRKSLLIGRHAHAIPGMDGPESEAFLQELIDFACQPPRIYHHDWAAGDAVLWDNRCLLHQATPWDMTQKRIMWHSRIAGDPASESALAH
modifications: Synthetic polypeptide, QYD46, D46
- Chromogenic reaction of degrading herbicides in bacteria: Triclopyr [1]: Yes
- Chromogenic reaction of degrading herbicides in bacteria: Triclopyr ([1]; listed as D46): slight degradation
- 2,4-D resistance of T1 generation transgenic seedlings (seminal root growth) (Arabidopsis thaliana [2]): showing tolerance to 2,4-D
- Chromogenic reaction of degrading herbicides in bacteria: MCPA [3]: Yes
- Chromogenic reaction of degrading herbicides in bacteria: 2,4-D [4]: Yes
- Chromogenic reaction of degrading herbicides in bacteria: 2,4-D ([4]; listed as D46): could degrade 2,4-D; also recorded: capable of degrading 2,4-D
- Resistance of transgenic Arabidopsis thaliana: 2,4-D (Arabidopsis thaliana [5]): Yes
- Resistance of transgenic Arabidopsis thaliana: MCPA (Arabidopsis thaliana [5]): Yes
